Patent publication US7910106B2, “Combinations of SAP depleting agents and anti-SAP antibodies” (Pentraxin Therapeutics Ltd., priority 2007, dated 2011)

Legend:
[1] = cited from earlier work
[2] = target: human serum amyloid P component (SAP), isolated pure, native (human) (UniProt P02743); experiment: IRMA, SAP non-covalently immobilised, antibody at 0.01 ug/ml, detection polyvalent anti-mouse IgG
[3] = target: human serum amyloid P component (SAP), isolated pure, native (human) (UniProt P02743); experiment: IRMA, SAP non-covalently immobilised, antibody at 0.1 ug/ml, detection polyvalent anti-mouse IgG
[4] = target: human serum amyloid P component (SAP), isolated pure, native (human) (UniProt P02743); experiment: IRMA, SAP non-covalently immobilised, antibody at 1 ug/ml, detection polyvalent anti-mouse IgG
[5] = target: human serum amyloid P component (SAP), isolated pure, native (human) (UniProt P02743); experiment: IRMA, SAP non-covalently immobilised, antibody at 0.001 ug/ml, detection anti-mouse IgG2a
[6] = target: human SAP complexed with CPHPC and covalently cross-linked with BS3 (human) (UniProt P02743); experiment: IRMA, SAP-CPHPC complex covalently immobilised, in calcium, radiolabelled sheep anti-mouse IgG, mean n=3
[7] = target: human SAP complexed with CPHPC and covalently cross-linked with BS3 (human) (UniProt P02743); experiment: IRMA, SAP-CPHPC complex captured on immobilised sheep polyclonal anti-human SAP, in calcium, radiolabelled sheep anti-mouse IgG, mean n=3
[8] = target: human serum amyloid P component (SAP), isolated pure, native (human) (UniProt P02743); experiment: Biacore (SPR), isolated pure SAP alone immobilised on the chip
[9] = target: human serum amyloid P component (SAP), isolated pure, native (human) (UniProt P02743); experiment: IRMA, SAP non-covalently immobilised, antibody at 0.001 ug/ml, detection polyvalent anti-mouse IgG
[10] = target: human serum amyloid P component (SAP), isolated pure, native (human) (UniProt P02743); experiment: IRMA, SAP non-covalently immobilised, antibody at 1 ug/ml, detection anti-mouse IgG2a
[11] = target: human serum amyloid P component (SAP), isolated pure, native (human) (UniProt P02743); experiment: IRMA, SAP non-covalently immobilised, antibody at 100 ug/ml, detection polyvalent anti-mouse IgG
[12] = target: human SAP complexed with CPHPC and covalently cross-linked with BS3 (human) (UniProt P02743); experiment: IRMA, SAP-CPHPC complex covalently immobilised, in EDTA, radiolabelled sheep anti-mouse IgG, mean n=3
[13] = target: human serum amyloid P component (SAP), isolated pure, native (human) (UniProt P02743); experiment: IRMA, SAP non-covalently immobilised, antibody at 0.01 ug/ml, detection anti-mouse IgG2a
[14] = target: human serum amyloid P component (SAP), isolated pure, native (human) (UniProt P02743); experiment: IRMA, SAP non-covalently immobilised, antibody at 100 ug/ml, detection anti-mouse IgG2a
[15] = target: human serum amyloid P component (SAP), isolated pure, native (human) (UniProt P02743); experiment: IRMA, SAP alone covalently immobilised, in EDTA, radiolabelled sheep anti-mouse IgG, mean n=3
[16] = target: human serum amyloid P component (SAP), isolated pure, native (human) (UniProt P02743); experiment: IRMA, SAP non-covalently immobilised, antibody at 10 ug/ml, detection polyvalent anti-mouse IgG
[17] = target: human serum amyloid P component (SAP), isolated pure, native (human) (UniProt P02743); experiment: IRMA, SAP alone covalently immobilised, in calcium, radiolabelled sheep anti-mouse IgG, mean n=3
[18] = target: human serum amyloid P component (SAP), isolated pure, native (human) (UniProt P02743); experiment: IRMA, SAP alone captured on immobilised sheep polyclonal anti-human SAP, in calcium, radiolabelled sheep anti-mouse IgG, mean n=3
[19] = target: human serum amyloid P component (SAP), isolated pure, native (human) (UniProt P02743); experiment: IRMA, SAP non-covalently immobilised, antibody at 0.1 ug/ml, detection anti-mouse IgG2a
[20] = target: human serum amyloid P component (SAP), isolated pure, native (human) (UniProt P02743); experiment: IRMA, SAP non-covalently immobilised, antibody at 10 ug/ml, detection anti-mouse IgG2a
SAP [21] = target: T1, SAP (Homo sapiens, UniProt P02743); experiment: Human SAP in serum and organ extracts by electroimmunoassay, AA amyloidotic human SAP transgenic mice (Example 1); format: in vivo, mouse; set-up: from tissue; host or cells: serum, spleen and liver of C57BL/6 mice with the mouse SAP gene deleted and transgenic for human SAP; settings: for Human SAP concentrations in serum [mean (SD)]: post CPHPC before antibody day 0, CPHPC 1 mg/ml in drinking water
Excerpt: In the present study AA amyloidosis was induced in mice by amyloid enhancing factor injection followed by repeated casein injections to elicit persistent acute inflammation and thus sufficiently sustained increase in SAA production to promote AA amyloid deposition in all animals. A unique strain of pure line C57BL/6 animals was used in which the mouse SAP gene has been deleted^13 and a human SAP transgene has been introduced^14, 15. […] We then treated three very closely matched groups as follows:
Systemic AA amyloidosis was induced in adult male (n=61) and female (n=32) pure line C57BL/6 mice with the mouse SAP gene deleted and which were transgenic for human SAP^15. Each mouse received a single dose of amyloid enhancing factor^9 by intravenous injection followed 4 days later by 10 daily subcutaneous injections of 10% w/v casein in solution in 0.1M NaHCO3 administered over a 12 day period^13. Seven days after the last casein injection, KI was introduced into the drinking water of all mice and 3 days later each mouse received an intravenous injection of a standard dose of ^125I-labelled human SAP^6,18. Four adult male and four female mice from the same colony but which had not received any other treatment were also given KI and ^125I-SAP as controls. All mice underwent whole body counting 24, 48, 72 96 and 168 h after the tracer injection to determine retention of radioactivity as an index of whole body amyloid load. […] The mice were then allocated to three closely matched groups with as close as possible to the same total numbers and sex distribution in each group. Ten days after the ^125I-SAP injection groups one and two were started on CPHPC in their drinking water at 1 mg/ml and continued on that treatment until the end of the experiment. Group three received no treatment at this or any later stage of the study. Five days after starting the CPHPC each animal in group one received an intraperitoneal injection comprising 1 ml of the whole IgG fraction of monospecific sheep anti-human SAP antiserum at 50 mg/ml containing 7 mg/ml of specific antibody in solution in phosphate buffered physiological saline. The antiserum was raised by immunisation of sheep with 100% pure human SAP. At the same time all animals in group 2 received an intraperitoneal injection comprising 1 ml of the whole IgG fraction of monospecific sheep anti-human oncostatin M receptor antiserum at 50 mg/ml in solution in phosphate buffered physiological saline. […] Twenty eight days after the intraperitoneal injections all mice were killed by bleeding out under terminal anaesthesia and the liver and spleen from each were removed. Each organ was weighed and then divided into three portions, one of which was also weighed and used for extraction of SAP, while the second portion was snap frozen for subsequent immunohistochemical and cytochemical analysis without fixation, and the last part was fixed in buffered formalin for routine histology and estimation of amyloid by Congo red staining^19. All mice were weighed at the time of assignment to the groups after induction of amyloidosis but before administration of ^125I-SAP. They were all weighed again before being killed at the end of the experiment. All mice were bled four times: (1) immediately before groups […] were started on CPHPC; (2) the day before injection of IgG preparations in groups […]; (3) 14 days after the IgG injections; (4) at the time of killing. Sections of spleen and liver of all animals stained with Congo red were independently examined by three different expert observers blinded to the treatment each mouse had received and scored for the amount of amyloid present as previously reported. The scores of 10^0-10^4 represent an approximately log base 10 ranking scale from 10^0, corresponding to one or two tiny specks of amyloidosis among several sections of a particular organ, to 10^4 corresponding to abundant widespread deposits comprising about 10,000 times more amyloid^13. […]

SAP [22] = target: T1, SAP; set-up: Human SAP is a constitutive protein in the plasma; from tissue; host or cells: plasma/serum and amyloid deposits of human patients; settings: in vivo; cited from earlier work
SAP [23] = target: T1, SAP; experiment: Treatment of a patient with systemic amyloidosis using CPHPC and anti-SAP antibody (Example 2); format: in vivo; set-up: Human SAP is a constitutive protein in the plasma; from tissue; host or cells: plasma/serum and amyloid deposits of human patients; settings: day after bolus intravenous 100 mg CPHPC
Experimental: A patient suffering from systemic amyloidosis is diagnosed by clinical examination and routine investigations leading to suspicion of amyloidosis, followed by specific confirmation by expert histochemical examination of biopsies of affected tissues. Radiolabelled SAP scintigraphy is performed in the UK NHS National Amyloidosis Centre at the Centre for Amyloidosis and Acute Phase Proteins in the Department of Medicine of University College London at the Royal Free Hospital. […] Routine clinical investigations of organ function establish the extent and severity of tissue and organ damage caused by the amyloid deposits, as well as the presence and severity of any underlying primary disease which may have led to amyloid deposition.
The patient is treated with the SAP depleting drug, CPHPC, administered by bolus intravenous injection of a dose of 100 mg. The following day a blood sample is taken. This confirms by specific immunoassay that the SAP concentration in the serum has been reduced by 90%. An intravenous infusion of anti-SAP antibody is then commenced and over a period of several hours a dose of 1000 mg of antibody is administered sufficient to bind to SAP within the amyloid deposits throughout the body. CPHPC is administered parenterally twice daily for the next two weeks, to ensure that plasma SAP values remain suppressed. […]

SAP [24] = target: T1, SAP; experiment: CPHPC administration in human systemic amyloidosis patients; format: in vivo; set-up: Human SAP is a constitutive protein in the plasma; from tissue; host or cells: plasma/serum and amyloid deposits of human patients; settings: after months of continuous CPHPC administration

Sequence of human SAP complexed with CPHPC and covalently cross-linked with BS3 (human) (P02743 20-223, one chain of several): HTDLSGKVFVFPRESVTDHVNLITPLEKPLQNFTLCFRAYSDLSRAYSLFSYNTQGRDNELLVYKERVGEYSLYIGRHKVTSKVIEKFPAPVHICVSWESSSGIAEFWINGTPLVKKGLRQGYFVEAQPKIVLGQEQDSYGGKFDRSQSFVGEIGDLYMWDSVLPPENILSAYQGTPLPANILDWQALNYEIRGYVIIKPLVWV
T1 sequence (P02743 20-223): as the sequence (P02743 20-223, one chain of several) above
Sequence of human serum amyloid P component (SAP), isolated pure, native (human) (P02743 20-223): as the sequence (P02743 20-223, one chain of several) above

Molecule: human SAP: isolated pure human SAP injected to load amyloid deposits
- Half time of persistence in amyloid deposits ([1]; amyloidotic mice): 3 to 4 days
- Half life of clearance from the circulation ([1]; human SAP not bound to amyloid): 3 to 4 h

Molecule: mouse monoclonal anti-human SAP antibody SAP-5
- Activity bound (d.p.m.) [2]: 902 d.p.m.
- Activity bound (d.p.m.) [3]: 4560 d.p.m.
- Activity bound (d.p.m.) [4]: 12100 d.p.m.
- Activity bound (d.p.m.) [5]: 94 d.p.m.
- Activity bound (d.p.m.) [6]: 6160 d.p.m.
- Activity bound (d.p.m.) [7]: 7120 d.p.m.
- koff [8]: 6e-05 s⁻¹
- kon [8]: 20000 M⁻¹ s⁻¹
- Activity bound (d.p.m.) [9]: 195 d.p.m.
- Activity bound (d.p.m.) [10]: 1650 d.p.m.
- Activity bound (d.p.m.) [11]: 16200 d.p.m.
- Activity bound (d.p.m.) [12]: 5140 d.p.m.
- Activity bound (d.p.m.) [13]: 222 d.p.m.
- Activity bound (d.p.m.) [14]: 2200 d.p.m.
- Activity bound (d.p.m.) [15]: 4050 d.p.m.
- Activity bound (d.p.m.) [16]: 15400 d.p.m.
- Activity bound (d.p.m.) [17]: 5580 d.p.m.
- Activity bound (d.p.m.) [18]: 9310 d.p.m.
- Activity bound (d.p.m.) [19]: 589 d.p.m.
- Activity bound (d.p.m.) [20]: 1980 d.p.m.

Molecule: O=C(O)[C@H]1CCCN1C(=O)CCCCC(=O)N1CCC[C@@H]1C(=O)O [CPHPC, (R)-1-[6-[(R)-2-Carboxy-pyrrolidin-1-yl]-6-oxo-hexanoyl]pyrrolidine-2-carboxylic acid]
- Human SAP concentrations in serum [mean (SD)] (SAP [21]; females): 4.0 (1.4) mg/l
- Human SAP concentrations in serum (SAP [21]; females, post antibody day 14): trace
- Human SAP concentrations in serum (SAP [21]; females, post antibody day 28): trace
- Human SAP concentrations in serum [mean (SD)] (SAP [21]; males): 2.9 (1.3) mg/l
- Human SAP concentrations in serum (SAP [21]; males, post antibody day 14): trace
- Human SAP concentrations in serum (SAP [21]; males, post antibody day 28): trace
- Tolerability / adverse effects (SAP [22]): extremely well tolerated
- Reduction of SAP concentration in the serum (SAP [23]): 90%
- Greatest depletion of SAP from amyloid deposits (SAP [24]): about 90%
